In patent publication US20190077860A1 (EISAI R AND D MANAGEMENT, published 2019):

Target: T1, human EphA4 extracellular region-SEAP-His protein (human, UniProt P54764 20-547)
T1 construct: also called hEphA4-SEAP-His
Test: SPR (Biacore T200), human EphA4 extracellular region-SEAP-His captured on an anti-His antibody CM5 chip, antibody as analyte at 0.6-50 nM, 1:1 fit (run alongside F(ab')2)
Protocol: Next, the binding affinity of antibody A-Fab and antibody A-F(ab′)₂ for mouse and human EphA4 was determined by surface plasmon resonance (SPR) using Biacore T200 (GE Healthcare). Antibody A obtained in Example 1 was used as a control for the comparison of each fragment. First, an anti-His tag antibody was immobilized on sensor chip CM5. The immobilization of the anti-His tag antibody on sensor chip CM5 was performed by the amine coupling method using N-hydroxysuccinimide (NHS) and N-ethyl-N′-(3-dimethylaminopropyl)carbodiimide hydrochloride (EDC). Ethanolamine was used in blocking (the sensor chip and the reagents for immobilization were all manufactured by GE Healthcare). The antibody was diluted with a buffer solution for immobilization (10 mM sodium acetate, pH 4.5) into 3 μg/mL and immobilized on the sensor chip according to the protocol attached to Biacore T200.
Mouse or human EphA4 extracellular region-SEAP-His protein was diluted with a running buffer solution HBS-EP (GE Healthcare, BR-1001-88), injected onto a flow cell for 120 seconds, and captured (amount of the protein captured: approximately 10 to 20 RU). Subsequently, antibody A (50, 16.7, 5.6, 1.9, 0.6, and 0 nM), antibody A-Fab (500, 166.7, 55.6, 18.5, 6.2, and 0 nM), or antibody A-F(ab′)₂ (50, 16.7, 5.6, 1.9, 0.6, and 0 nM) serially diluted using HBS-EP was added to the sensor chip for 120 seconds. Binding reaction curves were sequentially observed at the time of the addition (association phase, for 120 sec) and after the completion of the addition (dissociation phase, for 900 sec). After the completion of each observation, the sensor chip was regenerated by the addition of 3 M MgCl₂ (Wako Pure Chemical Industries) (for 30 sec). The obtained binding reaction curves were subjected to fitting analysis with 1:1 binding models using software BIA evaluation attached to the system to calculate the binding affinity (KD=kd/ka) for mouse and human EphA4.

T1 sequence (P54764 20-547): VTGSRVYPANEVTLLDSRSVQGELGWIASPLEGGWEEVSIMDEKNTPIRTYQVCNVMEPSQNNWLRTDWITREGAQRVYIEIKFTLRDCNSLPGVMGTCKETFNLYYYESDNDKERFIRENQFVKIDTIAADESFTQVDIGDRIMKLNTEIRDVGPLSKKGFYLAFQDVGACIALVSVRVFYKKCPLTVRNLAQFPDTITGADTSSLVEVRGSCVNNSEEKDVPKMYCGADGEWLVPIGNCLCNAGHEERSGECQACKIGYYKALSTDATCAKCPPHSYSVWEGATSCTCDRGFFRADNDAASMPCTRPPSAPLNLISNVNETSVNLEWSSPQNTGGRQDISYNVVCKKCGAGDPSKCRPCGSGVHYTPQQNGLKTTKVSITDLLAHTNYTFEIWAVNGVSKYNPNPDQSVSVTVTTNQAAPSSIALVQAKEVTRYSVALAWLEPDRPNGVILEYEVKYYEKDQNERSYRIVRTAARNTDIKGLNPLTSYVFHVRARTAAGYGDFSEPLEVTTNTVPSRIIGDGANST

Kd: 0.0399 nM | koff: 0.000236 s⁻¹ | kon: 5.91e+06 M⁻¹ s⁻¹
B1: antibody A (antibody, mouse IgG1, kappa, V domains shown)
VH: QIQLVQSGPELKKPGETVKISCKASGYTFTDYSMHWVKQAPGKGLKWMGWINTETGEPTYADDFKGRFAFSLETSASTAYLQINNLKNEDTATYFCARIPLYYYGSRYWYFDVWGAGTTVTVSS
VL: DIQMTQSPASLSVSVGETVTITCRASENIYRNLAWYQQKQGKSPQLLVYAATNLADGVPSRFSGSGSGTQYSLKINSLQSEDFGSYYCQHFWGTPWTFGGGTKLEIKR
notes: mouse IgG1 heavy chain, kappa light chain; purified from hybridoma supernatant; also called anti-EphA4 monoclonal antibody; antibody A-IgG
